Test results as given in patent US20260234255A1 (Genmab, published 2026).
Positions count from the first letter of the chain named. In names and notes the source's numbering stands.

T1: human CD30 (human, UniProt P28908 19-595)
T1 construct: The same molecule is used for CD30 on HL/ALCL/NHL cell lines; also called huCD30; TNFRSF8
T1 sequence: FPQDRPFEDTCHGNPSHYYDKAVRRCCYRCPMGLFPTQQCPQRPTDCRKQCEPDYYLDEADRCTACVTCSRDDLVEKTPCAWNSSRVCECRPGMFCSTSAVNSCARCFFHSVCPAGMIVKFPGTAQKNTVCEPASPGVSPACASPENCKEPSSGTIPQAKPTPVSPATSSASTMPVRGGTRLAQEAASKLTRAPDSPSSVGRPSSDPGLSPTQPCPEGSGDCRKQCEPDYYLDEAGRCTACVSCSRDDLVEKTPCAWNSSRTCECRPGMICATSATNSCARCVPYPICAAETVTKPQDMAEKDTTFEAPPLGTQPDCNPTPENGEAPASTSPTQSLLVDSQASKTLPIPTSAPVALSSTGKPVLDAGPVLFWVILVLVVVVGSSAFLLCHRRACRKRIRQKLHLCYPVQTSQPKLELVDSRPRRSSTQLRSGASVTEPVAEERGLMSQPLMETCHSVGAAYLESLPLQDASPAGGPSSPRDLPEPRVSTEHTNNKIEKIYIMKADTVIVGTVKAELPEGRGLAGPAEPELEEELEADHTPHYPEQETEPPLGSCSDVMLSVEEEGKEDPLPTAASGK

T2: cynomolgus monkey (Macaca fascicularis) CD30 (cynomolgus monkey, UniProt P28908 19-595 (human entry))
T2 construct: also called mfCD30
T2 chain: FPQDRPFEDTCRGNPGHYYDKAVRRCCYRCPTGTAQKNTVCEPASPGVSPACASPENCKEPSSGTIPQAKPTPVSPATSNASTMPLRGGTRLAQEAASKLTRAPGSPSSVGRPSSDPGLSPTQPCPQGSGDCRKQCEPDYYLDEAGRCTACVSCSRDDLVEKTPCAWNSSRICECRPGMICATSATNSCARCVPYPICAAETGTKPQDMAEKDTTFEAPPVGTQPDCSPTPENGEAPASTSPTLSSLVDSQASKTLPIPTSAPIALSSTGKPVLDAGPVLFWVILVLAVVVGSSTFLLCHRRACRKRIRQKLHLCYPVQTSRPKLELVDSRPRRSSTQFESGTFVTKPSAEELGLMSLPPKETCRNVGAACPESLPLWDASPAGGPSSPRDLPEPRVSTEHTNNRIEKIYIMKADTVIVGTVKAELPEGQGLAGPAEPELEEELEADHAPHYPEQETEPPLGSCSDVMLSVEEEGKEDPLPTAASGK

B1: bsG1-huCD3-H101G-FEALxCD30-MDX060-FEAR (bispecific antibody, human IgG1, kappa, lambda)
heavy 1: not shown
light 1: not shown
heavy 2: QVQLQQWGAGLLKPSETLSLTCAVYGGSFSAYYWSWIRQPPGKGLEWIGDINHGGGTNYNPSLKSRVTISVDTSKNQFSLKLNSVTAADTAVYYCASLTAYWGQGSLVTVSSASTKGPSVFPLAPSSKSTSGGTAALGCLVKDYFPEPVTVSWNSGALTSGVHTFPAVLQSSGLYSLSSVVTVPSSSLGTQTYICNVNHKPSNTKVDKRVEPKSCDKTHTCPPCPAPEFEGGPSVFLFPPKPKDTLMISRTPEVTCVVVAVSHEDPEVKFNWYVDGVEVHNAKTKPREEQYNSTYRVVSVLTVLHQDWLNGKEYKCKVSNKALPAPIEKTISKAKGQPREPQVYTLPPSREEMTKNQVSLTCLVKGFYPSDIAVEWESNGQPENNYKTTPPVLDSDGSFFLYSRLTVDKSRWQQGNVFSCSVMHEALHNHYTQKSLSLSPG
light 2: DIQMTQSPTSLSASVGDRVTITCRASQGISSWLTWYQQKPEKAPKSLIYAASSLQSGVPSRFSGSGSGTDFTLTISSLQPEDFATYYCQQYDSYPITFGQGTRLEIKRTVAAPSVFIFPPSDEQLKSGTASVVCLLNNFYPREAKVQWKVDNALQSGNSQESVTEQDSKDSTYSLSSTLTLSKADYEKHKVYACEVTHQGLSSPVTKSFNRGEC
notes: Variant of m7 whose CD3 arm carries H101G
B2: bsG1-b12-FEALxCD30-MDX060-FERR (bispecific antibody, human IgG1, kappa)
heavy 1: QVQLVQSGAEVKKPGASVKVSCQASGYRFSNFVIHWVRQAPGQRFEWMGWINPYNGNKEFSAKFQDRVTFTADTSANTAYMELRSLRSADTAVYYCARVGPYSWDDSPQDNYYMDVWGKGTTVIVSSASTKGPSVFPLAPSSKSTSGGTAALGCLVKDYFPEPVTVSWNSGALTSGVHTFPAVLQSSGLYSLSSVVTVPSSSLGTQTYICNVNHKPSNTKVDKRVEPKSCDKTHTCPPCPAPEFEGGPSVFLFPPKPKDTLMISRTPEVTCVVVAVSHEDPEVKFNWYVDGVEVHNAKTKPREEQYNSTYRVVSVLTVLHQDWLNGKEYKCKVSNKALPAPIEKTISKAKGQPREPQVYTLPPSREEMTKNQVSLTCLVKGFYPSDIAVEWESNGQPENNYKTTPPVLDSDGSFLLYSKLTVDKSRWQQGNVFSCSVMHEALHNHYTQKSLSLSPG
light 1: EIVLTQSPGTLSLSPGERATFSCRSSHSIRSRRVAWYQHKPGQAPRLVIHGVSNRASGISDRFSGSGSGTDFTLTITRVEPEDFALYYCQVYGASSYTFGQGTKLERKRTVAAPSVFIFPPSDEQLKSGTASVVCLLNNFYPREAKVQWKVDNALQSGNSQESVTEQDSKDSTYSLSSTLTLSKADYEKHKVYACEVTHQGLSSPVTKSFNRGEC
heavy 2: B1 heavy 2 with G231R, A260D
light 2: B1 light 2
notes: Monovalent CD30 control antibody
B3: IgG1-CD30-MDX060-FEAR (antibody)
heavy: B1 heavy 2
light: B1 light 2
notes: Monospecific, bivalent parental antibody; also called IgG1-MDX060-FEAR

Assays:
human CD30 [1] = biological target: T1, human CD30; test: flow cytometry, Expi293F cells transfected with human CD30
Method: Data are presented as mean fluorescence intensity (MFI) values as determined by flow cytometry of two technical replicates. […] Data are presented as mean fluorescence intensity (MFI) values as determined by flow cytometry of one representative experiment.
Binding of bispecific CD3×CD30 antibodies and monospecific, bivalent CD30 antibodies to the plasma membrane of Expi293 cells transiently transfected with human CD30 or cynomolgus monkey CD30 was analyzed by flow cytometry.

[2] = biological target: T2, cynomolgus monkey (Macaca fascicularis) …; test: flow cytometry, Expi293F cells transfected with cynomolgus monkey CD30 (mfCD30)
Method: Cells (3×10⁴ cells/well) were incubated in polystyrene 96-well round-bottom plates (Greiner bio-one, cat. no. 650180) with serial dilutions of antibodies (ranging from 0.005 to 10 μg/mL in 3-fold dilution steps) in 100 μL staining buffer at 4° C. for 30 min. Experiments were performed in technical duplicate. After washing twice in staining buffer, cells were incubated in 50 μL secondary antibody at 4° C. for 30 min. As a secondary antibody, R-PE-conjugated goat-anti-human IgG (Jackson ImmunoResearch, UK; cat. no. 109⁻¹¹⁶-098) diluted 1:400 in staining buffer was used. Cells were washed twice in staining buffer, resuspended in 30 μL staining buffer containing 0.4% EDTA and analyzed on an iQue Screener (Intellicyt Corporation, USA). Binding curves were analyzed using non-linear regression (sigmoidal dose-response with variable slope) using GraphPad Prism V9.0.0 software (GraphPad Software, San Diego, CA, USA).

human CD30 [3] = biological target: T1, human CD30; test: flow cytometry, HH cells
Method: Cells (3×10⁴ cells/well) were incubated in polystyrene 96-well round-bottom plates (Greiner bio-one, cat. no. 650180) with serial dilutions of antibodies (range 0.0046 to 10 μg/mL in 3-fold dilution steps) in 50 μL staining buffer at 4° C. for 30 min. After washing twice in staining buffer, cells were incubated with 50 μL secondary antibody at 4° C. for 30 min. […] Next, cells were washed twice in staining buffer, resuspended in 100 μL staining buffer supplemented with TO-PRO-3 iodide (Thermo Fisher Scientific; cat. no. T3605; 1:8000 dilution) and analyzed on a FACSCelesta flow cytometer (BD Biosciences, USA). Live cells were gated based on FSC/SSC and absence of TOPRO-3 staining. Binding curves were analyzed by non-linear regression of log-transformed data (sigmoidal dose-response with variable slope, four parameters) using GraphPad Prism V7.02 software (GraphPad Software, San Diego, CA, USA).

human CD30 [4] = biological target: T1, human CD30; test: flow cytometry, L-82 cells
human CD30 [5] = biological target: T1, human CD30; test: flow cytometry, L-540 cells
human CD30 [6] = biological target: T1, human CD30; test: flow cytometry, KM-H2 cells
human CD30 [7] = biological target: T1, human CD30; test: flow cytometry, DL-40 cells
human CD30 [8] = biological target: T1, human CD30; test: flow cytometry, L-1236 cells
human CD30 [9] = biological target: T1, human CD30; test: flow cytometry, SUP-M2 cells
human CD30 [10] = biological target: T1, human CD30; test: flow cytometry, SR-786 cells
human CD30 [11] = biological target: T1, human CD30; test: flow cytometry, JVM-2 cells
human CD30 [12] = biological target: T1, human CD30; test: flow cytometry, NCEB-1 cells
human CD30 [13] = biological target: T1, human CD30; test: flow cytometry, HDLM-2 cells
Outline: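 CD3×CD30 bispecific antibodies, 3-fold serial dilutions from 0.0046 to 10 μg/mL, incubated with 3×10⁴ SU-DHL-1 (ALCL) or HDLM-2 (HL) cells for 30 min at 4 °C, then secondary antibody 30 min at 4 °C. Live cells gated by FSC/SSC and TO-PRO-3 exclusion; binding curves fitted by four-parameter sigmoidal regression.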

human CD3 = biological target: T3, human CD3 (human, UniProt P07766 23-207); test: flow cytometry, primary human T cells
T3 construct: CD3 endogenously expressed on primary human T cells (whole TCR/CD3 complex); also called human CD3 (epsilon)
Method: Cynomolgus monkey PBMCs (Tebu-Bio, The Netherlands; cat. no. PBMCMFA-10) or purified human T cells were plated in polystyrene 96-well round-bottom plates. T cells were derived from human donor buffy coats (Sanquin, Amsterdam, The Netherlands) and isolated using the RosetteSep human T cell enrichment cocktail (Stemcell Technologies, France, cat. no. 15061) according to manufacturer's instructions. […] After washing twice in staining buffer, cells were incubated in 50 μL secondary R-PE-conjugated goat-anti-human IgG antibody at 4° C. for 30 min (1:400 dilution). After washing twice in staining buffer, T cells were stained for T-cell markers CD3 (1:100; Miltenyi biotec, clone 10D12, conjugated to APC), CD4 (1:50; eBioscience, clone OKT4, conjugated to APC-Cy7), CD8 (1:100; Biolegend, clone RPA-T8, conjugated to AF700) and T-cell activation markers CD69 (1:50; BD Biosciences, clone AB2439, conjugated to FITC), CD25 (1:50; eBioscience, clone BC96, conjugated to PE-Cy7) and CD279/PD1 (1:50; BD Biosciences, clone AEH12.2H7, conjugated to BV605). Single stained samples with Ultracomp beads (5 μL; Invitrogen, cat. no. 01-2222-42) were used for compensation adjustments of the flow cytometer. After 30 min of incubation at 4° C., cells were washed twice with staining buffer, resuspended in 100 μL staining buffer and analyzed using a FACS Fortessa (BD Biosciences). […]

cynomolgus monkey CD3 = biological target: T4, cynomolgus monkey CD3 (cynomolgus monkey, UniProt Q95LI5 22-198); test: flow cytometry, cynomolgus monkey T cells (PBMCs)
T4 construct: CD3 endogenously expressed on T cells within cynomolgus monkey PBMCs
Method: Cynomolgus monkey PBMCs (Tebu-Bio, The Netherlands; cat. no. PBMCMFA-10) or purified human T cells were plated in polystyrene 96-well round-bottom plates. T cells were derived from human donor buffy coats (Sanquin, Amsterdam, The Netherlands) and isolated using the RosetteSep human T cell enrichment cocktail (Stemcell Technologies, France, cat. no. 15061) according to manufacturer's instructions. […] After washing twice in staining buffer, cells were incubated in 50 μL secondary R-PE-conjugated goat-anti-human IgG antibody at 4° C. for 30 min (1:400 dilution). After washing twice in staining buffer, T cells were stained for T-cell markers CD3 (1:100; Miltenyi biotec, clone 10D12, conjugated to APC), CD4 (1:50; eBioscience, clone OKT4, conjugated to APC-Cy7), CD8 (1:100; Biolegend, clone RPA-T8, conjugated to AF700) and T-cell activation markers CD69 (1:50; BD Biosciences, clone AB2439, conjugated to FITC), CD25 (1:50; eBioscience, clone BC96, conjugated to PE-Cy7) and CD279/PD1 (1:50; BD Biosciences, clone AEH12.2H7, conjugated to BV605). Single stained samples with Ultracomp beads (5 μL; Invitrogen, cat. no. 01-2222-42) were used for compensation adjustments of the flow cytometer. After 30 min of incubation at 4° C., cells were washed twice with staining buffer, resuspended in 100 μL staining buffer and analyzed using a FACS Fortessa (BD Biosciences). Data were processed using FlowJo (BD Biosciences).

T3 sequence (P07766 23-207 limits assumed): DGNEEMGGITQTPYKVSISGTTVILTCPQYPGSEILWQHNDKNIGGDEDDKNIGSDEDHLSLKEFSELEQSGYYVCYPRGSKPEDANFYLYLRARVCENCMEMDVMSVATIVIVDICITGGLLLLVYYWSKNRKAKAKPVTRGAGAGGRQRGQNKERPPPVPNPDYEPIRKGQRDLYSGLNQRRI
T4 sequence (Q95LI5 22-198): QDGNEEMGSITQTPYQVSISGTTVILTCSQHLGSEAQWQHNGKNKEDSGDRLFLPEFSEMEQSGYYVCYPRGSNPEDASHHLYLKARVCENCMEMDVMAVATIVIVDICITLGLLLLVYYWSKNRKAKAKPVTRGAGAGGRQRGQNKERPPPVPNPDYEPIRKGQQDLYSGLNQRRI

Row | Binder | binding result (human CD30 [1]) | binding result [2] | EC50 (read off the curve) (human CD30 [3]) | EC50 (read off the curve) (human CD30 [4]) | EC50 (read off the curve) (human CD30 [5]) | EC50 (read off the curve) (human CD30 [6]) | EC50 (read off the curve) (human CD30 [7]) | EC50 (read off the curve) (human CD30 [8]) | EC50 (read off the curve) (human CD30 [9]) | EC50 (read off the curve) (human CD30 [10]) | EC50 (read off the curve) (human CD30 [11]) | EC50 (read off the curve) (human CD30 [12]) | EC50 (read off the curve) (human CD30 [13]) | binding result (human CD3) | binding result (cynomolgus monkey CD3)
1 | B1 | binds | binds |  |  |  |  |  |  |  |  |  |  |  |  | 
2 | B2 |  |  | ~0.4 µg/mL | ~0.2 µg/mL | ~0.5 µg/mL | ~0.1 µg/mL | ~0.3 µg/mL | ~0.2 µg/mL | ~0.2 µg/mL | ~0.3 µg/mL | ~0.1 µg/mL | ~0.2 µg/mL |  |  | 
3 | B3 |  | binds |  |  |  |  |  |  |  |  |  |  | ~0.2 µg/mL | no binding (tested: 10 ug/mL) | no binding (tested: 10 ug/mL)
